# Like-named read-outs stand apart in the source and are kept apart here.
# T1: AMA-1 on P. falciparum 3D7 strain parasites (Plasmodium falciparum)
# T1 chain: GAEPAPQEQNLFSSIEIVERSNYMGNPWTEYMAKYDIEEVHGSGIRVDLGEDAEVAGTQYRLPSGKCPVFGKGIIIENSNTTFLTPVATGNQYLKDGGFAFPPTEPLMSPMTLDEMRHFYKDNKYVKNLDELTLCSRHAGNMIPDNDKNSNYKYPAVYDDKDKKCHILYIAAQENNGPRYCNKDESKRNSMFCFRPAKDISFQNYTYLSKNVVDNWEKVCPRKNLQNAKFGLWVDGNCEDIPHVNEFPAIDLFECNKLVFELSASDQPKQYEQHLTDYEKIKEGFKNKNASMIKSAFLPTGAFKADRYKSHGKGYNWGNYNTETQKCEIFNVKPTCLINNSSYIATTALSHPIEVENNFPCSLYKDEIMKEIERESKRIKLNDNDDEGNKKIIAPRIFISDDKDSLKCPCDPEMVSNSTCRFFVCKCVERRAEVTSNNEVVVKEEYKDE
# B1: Monoclonal 1B10 (antibody, V domains shown)
# VH: EVQLQESGPGLVQPSQSLSITCTVSGFSLNMYGVHWVRQSPGKGLEWLGVIWSGGTTDYNAAFISRLSINRDNSKSQVFFKMNSLQTDDTAIYYCVRNNGYYVDAMDYWGQGTSVAVSS
# VL: DVVMTQTPLSLPVSLGDQASISCRSSQSLVHSNGNTYLHWYLQRPGQSPKLLIYKVSNRFSGVPDRFSGSGSGTDFTLKISRVEAEDLGVYFCSQSTLGPTFGGGTKLEMQR
# B2: Monoclonal 4E8 (antibody, V domains shown)
# VH: EVQLQESGPGLVQPSQSLSITCTVSDFSLIMYGVHWVRQSPGKGLEWLGVIWSGGSTDYNAAFISRLSISKDNSKSQVFFKMNSLQADDTAIYYCARNNGYYVDAMDYWGQGTSVTVSS
# VL: DVVMTQTPLSLPVSLGDQASISCRSSQSLVHNNGNTYLHWYLQKPGQSPKLLIYKVSNRFFGVPDRFSGSGSGTDFTLKISRVEAEDLGVYFCSQSTHVPTFGGGTKLEIKR
# B3: Monoclonal 4E11 (antibody, V domains shown)
# VH: EVQLQESGPGLVRPSQSLSITCTVSGFSLPLYGVHWVRQSPGKGLEWLGVIWSGGSTDYNAAFVSRLSISKDNSKSQVFFEMNSLQADDTATYYCARNNGYYVDAMDYWGQGTSVTVSS
# VL: DVVMTQTPLSLPVSLGDQASISCRSSQSLVHSNGNTYLHWYLQKPGQSPKLLIFKVSNRFSGVPDRFSGSGSGTDFTLQISRVEAEDLGFYFCSQSTHVPTFGGGTKLEIKR
# B4: Monoclonal 1E10 (antibody, V domains shown)
# VH: EVQLQESGAELAKPGASVKLSCKASGYTFTNYLMHWIKQRPGQGLEWIGYINHGSGYTNYNQKFIDRATLTADKSSSTAYMQLRSLTYEDSAVYYCVHGYFDVWGTGTTVTVSS
# VL: QIVLTQSPTIMSASPGEKVTMTCSASSSVTYMHWYQQKPGTSPKRWIYDTSKLASGVPARFSGSGSGTSYSLTISSMEAEDAATYYCHQRSSYPTFGGGTKLEIKR
# Legend:
# [1] = target: AMA-1 on P. falciparum 3D7 strain parasites (Plasmodium falciparum)
# [2] = target: AMA-1 on P. falciparum 3D7 strain parasites (Plasmodium falciparum); remark: listed apart in the source
# 7 AMA-1 allelic proteins = experiment: dot blot against 7 AMA-1 allelic proteins
# [3] = target: T1, AMA-1 on P. falciparum 3D7 strain …; experiment: cell-based or functional assay
# [4] = target: T1, AMA-1 on P. falciparum 3D7 strain …; experiment: cell-based or functional assay
Molecule,IC30 concentration in GIA against 3D7 target parasites [1],GIA at 1 mg/ml against the 3D7 target strain: Inhibition [2],Strain reactivity (of 7 AMA-1 allelic proteins) (7 AMA-1 allelic proteins),IC30 concentration in GIA against 3D7 target parasites [3],GIA at 1 mg/ml against the 3D7 target strain: Inhibition [4]
rat mAb 4G2dc1 (antibody),1800 µg/mL,22%,–,–,–
B1,–,–,5,150 µg/mL,65%
B2,–,–,6,150 µg/mL,67%
B3,–,–,5,220 µg/mL,62%
B4,–,–,7,1900 µg/mL,20%

# From patent publication US10357554B2, “AMA-1 epitopes, antibodies, compositions, and methods of making and using the same” (THE UNITED STATES OF AMERICA, AS REPRESENTED BY THE …, dated 2019)
